Here are results for nine molecules from patent US20200255504A1 (VIB VZW, published 2020).

Assay [1] has as its target T1, human serum albumin (human, UniProt P02768 25-609).
T1 construct: also called HSA; human albumin
The assay can be described thus: affinity determination, method not stated.

Another assay has as its target T2, bovine serum albumin (bovine, UniProt P02769 25-607).
T2 construct: also called bovine albumin
The assay can be described thus: BLI Octet RED96, albumin on AR2G sensors. (In general: BLI is a label-free optical method that tracks binding on a fibre tip over time.)

Another assay has as its target T3, cat serum albumin (cat, UniProt P49064 25-608).
T3 construct: also called cat SA
The assay is described as follows: BLI Octet RED96, albumin on AR2G sensors.

A further assay addresses T4, pig serum albumin (pig, UniProt P08835 25-607).
T4 construct: also called pig SA
The assay is described as follows: BLI Octet RED96, albumin on AR2G sensors.

The target of assay [2] is T5, rat serum albumin (rat, UniProt P02770 25-608).
T5 construct: also called rat albumin
The assay can be described thus: BLI Octet RED96, rat albumin, reference SA1_S30K.

The target in assay [3] is T6, mouse serum albumin (mouse, UniProt P07724 25-608).
T6 construct: also called mouse albumin
The assay can be described thus: BLI Octet RED96, mouse albumin, reference SA1_S30K.

The target of assay [4] is T1, human serum albumin. The assay is described as follows: BLI Octet RED96, HSA on AR2G sensors, VHH 100-1.5 nM.
The target of assay [5] is T1, human serum albumin. The assay can be described thus: BLI Octet RED96, albumin on AR2G sensors, VHH 100-1.5 nM.
The target of assay [6] is T6, mouse serum albumin. The description is as above.
Assay [7] concerns the target T5, rat serum albumin. Described as above.
Assay [8] deals with T7, cynomolgus monkey serum albumin (cynomolgus monkey).
T7 construct: also called cyno albumin
The assay is described as above.

For the next assay, the target named is T8, rabbit serum albumin (rabbit, UniProt P49065 25-608).
T8 construct: also called rabbit albumin
The assay is described as follows: BLI Octet RED96, albumin on AR2G sensors, VHH 1600-25 nM.

The target of another assay is T9, horse serum albumin (horse, UniProt P35747 25-607).
T9 construct: also called horse SA; horse albumin
The assay can be described thus: BLI Octet RED96, albumin on AR2G sensors, VHH 800-12.5 nM, 1:1 model.

For the next assay, the target named is T10, dog serum albumin (dog, UniProt P49822 25-608).
T10 construct: also called dog SA; dog albumin
The assay is described as above.

Assay [9] has as its target T1, human serum albumin. The assay can be described thus: BLI off-rate screen, periplasmic extract 1/4 in PBS, HSA on AR2G sensors.
Experimental: (§1) Off-rate was analyzed by BioLayer Interferometry on an Octet RED96 (Fortebio) instrument using human serum albumin (HSA) coated Octet AR2G sensors (HSA was coupled at 20 μg/mL at pH 5.0 as detailed in Fortebio Technical Note 26).
In assay [10] the target is T1, human serum albumin. The assay can be described thus: BLI off-rate screen, periplasmic extract 1/4 in 75 mM NaAc pH 5.5, HSA on AR2G sensors.
Experimental: as §1
Assay [11] has as its target T1, human serum albumin. The assay is described as follows: BLI Octet RED96, HSA on AR2G sensors, VHH 100-1.5 nM (column head says nM; values look like M).
The target in assay [12] is T1, human serum albumin. The assay is described as follows: BLI Octet RED96, albumin on AR2G sensors (as in Example 4).
The target in assay [13] is T7, cynomolgus monkey serum albumin. Described as above.
The target in assay [14] is T1, human serum albumin. The assay can be described thus: BLI Octet RED96, HSA on AR2G sensors.

Numbering of substitutions follows the chain as printed. Several values for one entry are separate records, joined by “and”; a condition that tells them apart may be missing. Identical values can stand only once.

Experimental for cat serum albumin: (§2) 10 mg of lyophilized cat, dog, horse or pig serum (HSA) albumin (Sigma) was resuspended in 1 mL of PBS (10 μg/μL). This was used at 20 μg/mL in the “Ligand scouting immobilization conditions” protocol for AR2G Biosensors as detailed in Fortebio Technical Note 26, in conjunction with a Fortebio Octet Red96 machine. Only the pH 5.0 and pH 4.0 condition were tested.
(§3) After data acquisition, the profiles were analyzed using the Octet Data analysis software v9.0.
Experimental for dog serum albumin: as §2, §3
Experimental for horse serum albumin: as §2, §3
Experimental for pig serum albumin: as §2, §3

B1: VHH-GFP-SA1_S30K (bispecific antibody)
chain: QVQLQESGGALVQPGGSLRLSCAASGFPVNRYSMRWYRQAPGKEREWVAGMSSAGDRSSYEDSVKGRFTISRDDARNTVYLQMNSLKPEDTAVYYCNVNVGFEYWGQGTQVTVSSGGSGGSGGSGGSGGSGGSGGSGGSGGSGGSGGSGGSGGSGGSGGSGGSGGSGGSGGSGGSQVQLQESGGGLVQAGGSLRLSCAASGRNIKEYVMGWFRQAPGKEREFVAAISWSAGNIYYADSVKGRFTISRDNAKNTVHLQMNTLRPEDTAVYYCAAGRYSAWYVAAYEYDYWGQGTQVTVSS
notes: also called VHH-GFP-SA26
The term Kd denotes a measure of binding affinity in units of concentration. In turn, B1 came in with an equilibrium dissociation constant (Kd) with human serum albumin [1] of 5 nM.

B2: SA1 VHH (VHH)
VHH: QVQLQESGGGLVQAGGSLRLSCAASGRNISEYVMGWFRQAPGKEREFVAAISWSAGNIYYADSVKGRFTISRDNAKNTVHLQMNTLRPEDTAVYYCAAGRYSAWYVAAYEYDYWGQGTQVTVSS
notes: From WO2014/037419; made in E. coli WK6 periplasm; also called non-mutated SA1; original SA1 VHH
By koff is commonly meant the rate constant with which the complex falls apart. The term kon denotes a measure of how fast the partners come together. Turning to B2, the values for the binding result in the assay with bovine serum albumin, with cat serum albumin and with pig serum albumin were “no binding”, “no binding (tested: 800 nM (highest concentration))” and “no binding (tested: 800 nM (highest concentration))”, respectively. The “fold lower affinity than SA1_S30K” value with rat serum albumin [2] was found to be 20 fold; in the assay with mouse serum albumin [3], 2 fold. Also, the off-rate constant (koff) in the assay with human serum albumin [4] was 0.00022 s⁻¹; with horse serum albumin, 0.00483 s⁻¹; in the assay with dog serum albumin, 0.0158 s⁻¹; with human serum albumin [9], 0.00222 s⁻¹ and 0.00199 s⁻¹; with human serum albumin [10] it was 0.000972 s⁻¹ and 0.00119 s⁻¹. In addition, the Kd was 0.9 nM with human serum albumin [5]; 0.66 nM in the assay with mouse serum albumin [6]; 0.45 nM in the assay with rat serum albumin [7]; 0.37 nM in assay [8]; 600 nM with rabbit serum albumin; 121 nM with horse serum albumin. The Kd with dog serum albumin was determined as 126 nM; with human serum albumin [11] it was 1.15 nM. In addition, the kon was determined as 52100 M⁻¹ s⁻¹ with horse serum albumin and 123000 M⁻¹ s⁻¹ in the assay with dog serum albumin.

B3: SA1-biotinylated (VHH)
VHH: B2 VHH
modifications: labeled with NHS-PEG4-Biotin at a 5/1 molar ratio of biotin/VHH; labelled residues not determined
notes: also called biotinylated SA1
In the assay with human serum albumin [4], B3 registered a koff of 0.000166 s⁻¹. Besides, binding with human serum albumin [11] was put at a Kd of 1.97 nM.

B4: SA1_S30K humanized variant 1 VHH (VHH)
VHH: B2 VHH with Q1E, A14P, S30K, A75S, Q119L
notes: also called h1
B4: the Kd with human serum albumin [12] turned out to be 1.33 nM; in assay [13], 0.36 nM.

B5: SA1_S30K humanized variant 2 VHH (VHH)
VHH: B2 VHH with Q1E, A14P, S30K, A75S, H80Y, Q119L
notes: also called h2
Regarding B5, the equilibrium dissociation constant (Kd) in the assay with human serum albumin [12] was 1.53 nM; in assay [13], 0.5 nM.

B6: SA1_S30K humanized variant 3 VHH (VHH)
VHH: B2 VHH with Q1E, A14P, S30K, A75S, T85S, Q119L
notes: also called h3
Regarding B6, the Kd with human serum albumin [12] amounted to 1.64 nM; in assay [13], 0.29 nM.

B7: SA1_S30K humanized variant 4 VHH (VHH)
VHH: B2 VHH with Q1E, A14P, S30K, A75S, H80Y, T85S, Q119L
notes: also called h4
Consider B7, for which the values for the Kd (with human serum albumin [12]; in [13]) were 2.11 nM and 0.32 nM, respectively.

B8: SA1_S30K-biotinylated (VHH)
VHH: B2 VHH with S30K
modifications: labeled with NHS-PEG4-Biotin at a 5/1 molar ratio of biotin/VHH; the filing says the higher signal is likely related to the additional lysine at position 30; labelled residues not determined
notes: also called biotinylated SA1_S30K VHH
B8: the “fold change in KD or kon or koff against the unbiotinylated VHH” value with human serum albumin [14] was under 2 fold. Also, the off-rate constant (koff) with human serum albumin [4] was 0.000187 s⁻¹. In the assay with human serum albumin [11], this molecule came in with a Kd of 1.49 nM.

B9: SA1_S30K VHH (VHH)
VHH: B2 VHH with S30K
notes: Made in E. coli WK6 periplasm; also called SA1_S3OK; SA1_S30K mutant variant
Consider B9, for which the figures for the binding result with bovine serum albumin, with cat serum albumin and with pig serum albumin were “no binding”, “no binding (tested: 800 nM (highest concentration))” and “no binding (tested: 800 nM (highest concentration))”, respectively. Besides, the dissociation rate constant (koff) with human serum albumin [4] came to 0.000203 s⁻¹; in the assay with horse serum albumin, 0.0103 s⁻¹; with dog serum albumin, 0.0181 s⁻¹; with human serum albumin [9], 0.00141 s⁻¹; in the assay with human serum albumin [10], 0.00181 s⁻¹. In addition, the Kd with human serum albumin [5] is 0.91 nM; with mouse serum albumin [6], 0.29 nM; with rat serum albumin [7], 0.02 nM; in assay [8], 0.38 nM; with human serum albumin [12], 1.28 nM; in assay [13], 0.57 nM. Further, the figures for the Kd in the assay with horse serum albumin, with dog serum albumin and with human serum albumin [11] were 201 nM, 160 nM and 0.825 nM, respectively. Also, the kon in the assay with horse serum albumin was 59100 M⁻¹ s⁻¹; with dog serum albumin it was 166000 M⁻¹ s⁻¹. Moreover, the Response was determined as 0.25 nm with human serum albumin [9] and 0.438 nm in the assay with human serum albumin [10].
